Results published in US20210395346A1 (SEOUL NATIONAL UNIVERSITY R AND DB FOUNDATION, published 2021).

Assays:
[1] = molecular target: T1, recombinant SARS-CoV-2 RBD protein (wild-type) (SARS-CoV-2; human, UniProt P0DTC2 306-543); test: ELISA (FIG. 18A)
T1 construct: range 306-543

[2] = molecular target: T1, recombinant SARS-CoV-2 RBD protein …; test: ELISA (FIG. 18B)
[3] = molecular target: T1, recombinant SARS-CoV-2 RBD protein …; test: ELISA (FIG. 18C)
[4] = molecular target: T1, recombinant SARS-CoV-2 RBD protein …; test: ELISA (FIG. 18E)

B1: A-1H4 antibody (format in FIG. 18 not stated) (antibody, V domains shown)
VH: EVQLVESGGGLVQPGRSLRLSCAASGFTVSSNYMSWVRQAPGKGLEWVSGIYSGGSTYYADSVKGRFTISRDNSKNTLYLQMNSLRAEDTAVYYCARDLQEAGAFDIWGQGTMVTVSS
VL: ELQLTQSPSFLSASVGDRVTITCRASQGISSYLAWYQQKPGKAPKLLIYAASTLQSGVPSRFSGSGSGTEFTLTISSLQPEDFATYYCQQLNSYPRLTFGGGTKVEIK
B1: binds [1].

B2: A-2F1 antibody (format in FIG. 18 not stated) (antibody, V domains shown)
VH: QVQLVQSGGGLIQPGGSLRLSCAASGVTVSSNYMSWVRQAPGKGLEWVSVIYSGGSTFYADSVKGRFTISRDNSKNTLYLQMNSLRAEDTAVYYCARDLMEAGGMDVWGQGSTVTVSS
VL: ELALTQPPSASGSPGQSVTISCTASSSDIGASNHVAWYQQNPGKAPKLMIYGVSGRPSGVPDRFSGSKSGNTASLTVSGLQAEDEADYYCSSYAGSNILIFGGGTKLTVL
B2: binds [2].

B3: A-2H4 antibody (format in FIG. 18 not stated) (antibody, V domains shown)
VH: QMQLVESGGGLVQPGRSLRLSCAASGFTFSVYGMHWVRQAPGKGLEWVAVISYDGSNKYYADSVKGRFSISRDNSKNTLYLQMNSLRGEDTAVYYCAKGGPRPVVKAYGELDYYGMDVWGQGTTVTVSS
VL: ELALTQPASVSGSPGQSITISCTGTSSDIGGYEYVSWYQQHPGKAPKLIIYDVRDRPSGISNRFSGSKSGNTASLIISSLQAGDEADYYCFSYTSSGTYVFGSATKVTVL
B3: binds [3].

B4: E-3G9 antibody (format in FIG. 18 not stated) (antibody, V domains shown)
VH: QMQLVQSGAEVKKPGASVKVSCKASGHTITSYYMHWVRQAPGQGLEWMGIINPSGGSTSYAQKFQGRVTMTRDTSTSTVYMELSSLRSEDTAVYYCAREGVWDSSGYSSFDYWGQGTLVTVSS
VL: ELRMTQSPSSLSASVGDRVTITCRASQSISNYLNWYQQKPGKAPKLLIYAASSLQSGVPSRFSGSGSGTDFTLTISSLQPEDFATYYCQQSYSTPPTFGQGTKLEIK
B4: binds [4].
